Data on 50 molecules can be found in article PMC9352680, “A comprehensive thermodynamic model for RNA binding by the Saccharomyces cerevisiae Pumilio protein PUF4”.

Sequences and labels used below:
T1: PUF4 RNA-binding domain (Saccharomyces cerevisiae, UniProt P25339 537-888)
T1 sequence: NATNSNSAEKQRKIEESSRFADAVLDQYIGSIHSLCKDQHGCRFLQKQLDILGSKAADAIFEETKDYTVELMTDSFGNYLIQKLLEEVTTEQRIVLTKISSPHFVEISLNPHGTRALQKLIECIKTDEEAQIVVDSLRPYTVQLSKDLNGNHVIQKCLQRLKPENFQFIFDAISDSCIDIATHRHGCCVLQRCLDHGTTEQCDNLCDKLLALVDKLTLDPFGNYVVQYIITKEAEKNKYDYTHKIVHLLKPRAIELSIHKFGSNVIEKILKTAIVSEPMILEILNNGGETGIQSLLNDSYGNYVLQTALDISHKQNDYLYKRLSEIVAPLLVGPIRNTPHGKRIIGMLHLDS

B1: Ie_S3_P4E.1_K4.1_C4.1_H4.1_[+2CTT]_A4.1_F4.1_T4.1 (ssRNA)
RNA: ACAAACUGCUUUAUAUUAACAAAC
B2: Ib_S2_P3E.1_K3.1_C3.1_H3.1_[G2T]_[A4T]_A3.1_F3.1_T3.1 (ssRNA)
RNA: UUUGAUUAAUAUGAUAUCGUUCUUUCUUUUUUAUAUUCUUUCUCGAUAUCAUAUUAAUCUUU
B3: Ib_S2_P3E.1_K3.1_C3.1_H3.1_[G2A]_[A4T]_A3.1_F3.1_T3.1 (ssRNA)
RNA: UUUGAUUAAUAUGAUAUCGUUCUUUCUUAUUUAUAUUCUUUCUCGAUAUCAUAUUAAUCUUU
B4: Ib_S2_P3E.1_K3.1_C3.1_H3.1_[T1C]_A3.1_[T5A]_F3.1_T3.1 (ssRNA)
RNA: UUUGAUUAAUAUGAUAUCGUUCUUUCUCGUAAAUAUUCUUUCUCGAUAUCAUAUUAAUCUUU
B5: Ib_S2_P3E.1_K3.1_C3.1_H3.1_[T3C]_[A4G]_A3.1_F3.1_T3.1 (ssRNA)
RNA: UUUGAUUAAUAUGAUAUCGUUCUUUCUUGCGUAUAUUCUUUCUCGAUAUCAUAUUAAUCUUU
B6: Ie_S3_P5E.1_K5.1_C5.1_H5.1_[+1CTC]_A5.1_F5.1_T5.1 (ssRNA)
RNA: ACAAACUCUCGUAUUAUUAACAAAC
B7: Ie_S3_P3E.2_K3.1_C3.2_H3.1_[+2CCT]_A3.1_F3.1_T3.2 (ssRNA)
RNA: ACAAACCUUGCCUUAUAUAUAACAAAC
B8: Ie_S3_P4E.1_K4.1_C4.1_H4.1_[+3CCTC]_A4.1_F4.1_T4.1 (ssRNA)
RNA: ACAAACUGUCCUCAUAUUAACAAAC
B9: Ie_S3_P5E.1_K5.1_C5.1_H5.1_[+2CTT]_A5.1_F5.1_T5.1 (ssRNA)
RNA: ACAAACUGCUUUAUUAUUAACAAAC
B10: Ie_S3_P4E.1_K4.1_C4.1_H4.1_[+2CCTC]_A4.1_F4.1_T4.1 (ssRNA)
RNA: ACAAACUGCCUCUAUAUUAACAAAC
B11: Ie_S2_P5E.1_K5.1_C5.1_H5.1_A5.1_F5.1_[+9CTCTC]_T5.1 (ssRNA)
RNA: UUUGAUUAAUAUGAUAUCGUUCUUUCUUGUAUUAUUCUCUCAUUCUUUCUCGAUAUCAUAUUAAUCUUU
B12: Ie_S2_P5E.1_K5.1_C5.1_H5.1_A5.1_F5.1_[+10TTCCT]_T5.1 (ssRNA)
RNA: UUUGAUUAAUAUGAUAUCGUUCUUUCUUGUAUUAUUAUUCCUUUCUUUCUCGAUAUCAUAUUAAUCUUU
B13: Ie_S2_P5E.1_K5.1_C5.1_H5.1_A5.1_F5.1_[+9TCTCT]_T5.1 (ssRNA)
RNA: UUUGAUUAAUAUGAUAUCGUUCUUUCUUGUAUUAUUUCUCUAUUCUUUCUCGAUAUCAUAUUAAUCUUU
B14: Ie_S2_P5E.1_K5.1_C5.1_H5.1_A5.1_F5.1_[+9CCCTT]_T5.1 (ssRNA)
RNA: UUUGAUUAAUAUGAUAUCGUUCUUUCUUGUAUUAUUCCCUUAUUCUUUCUCGAUAUCAUAUUAAUCUUU
B15: Ie_S2_P5E.1_K5.1_C5.1_H5.1_A5.1_F5.1_[+9CCTCT]_T5.1 (ssRNA)
RNA: UUUGAUUAAUAUGAUAUCGUUCUUUCUUGUAUUAUUCCUCUAUUCUUUCUCGAUAUCAUAUUAAUCUUU
B16: Ie_S2_P5E.1_K5.1_C5.1_H5.1_A5.1_F5.1_[+9TTCCT]_T5.1 (ssRNA)
RNA: UUUGAUUAAUAUGAUAUCGUUCUUUCUUGUAUUAUUUUCCUAUUCUUUCUCGAUAUCAUAUUAAUCUUU
B17: Ie_S2_P5E.1_K5.1_C5.1_H5.1_A5.1_F5.1_[+10TCTCT]_T5.1 (ssRNA)
RNA: UUUGAUUAAUAUGAUAUCGUUCUUUCUUGUAUUAUUAUCUCUUUCUUUCUCGAUAUCAUAUUAAUCUUU
B18: Ie_S3_P4E.1_K4.1_C4.1_H4.1_[+2CTC]_A4.1_F4.1_T4.1 (ssRNA)
RNA: ACAAACUGCUCUAUAUUAACAAAC
B19: Ie_S3_P4E.1_K4.1_C4.1_H4.1_A4.1_F4.1_[+9TTCC]_T4.1 (ssRNA)
RNA: ACAAACUGUAUAUUAUUCCACAAAC
B20: Ie_S3_P3E.2_K3.1_C3.2_H3.1_[+1TTCC]_A3.1_F3.1_T3.2 (ssRNA)
RNA: ACAAACCUUUUCCGUAUAUAUAACAAAC
B21: Ie_S3_P3E.2_K3.1_C3.2_H3.1_[+1TC]_A3.1_F3.1_T3.2 (ssRNA)
RNA: ACAAACCUUUCGUAUAUAUAACAAAC
B22: Ie_S3_P3E.2_K3.1_C3.2_H3.1_[+2CCCTT]_A3.1_F3.1_T3.2 (ssRNA)
RNA: ACAAACCUUGCCCUUUAUAUAUAACAAAC
B23: Ie_S3_P4E.1_K4.1_C4.1_H4.1_[+2CCC]_A4.1_F4.1_T4.1 (ssRNA)
RNA: ACAAACUGCCCUAUAUUAACAAAC
B24: Ie_S3_P5E.1_K5.1_C5.1_H5.1_[+3CT]_A5.1_F5.1_T5.1 (ssRNA)
RNA: ACAAACUGUCUAUUAUUAACAAAC
B25: Ie_S3_P4E.1_K4.1_C4.1_H4.1_[+4TTCC]_A4.1_F4.1_T4.1 (ssRNA)
RNA: ACAAACUGUAUUCCUAUUAACAAAC
B26: Ie_S2_P5E.1_K5.1_C5.1_H5.1_A5.1_F5.1_[+9TTCC]_T5.1 (ssRNA)
RNA: UUUGAUUAAUAUGAUAUCGUUCUUUCUUGUAUUAUUUUCCAUUCUUUCUCGAUAUCAUAUUAAUCUUU
B27: Ie_S2_P5E.1_K5.1_C5.1_H5.1_A5.1_F5.1_[+9CCCT]_T5.1 (ssRNA)
RNA: UUUGAUUAAUAUGAUAUCGUUCUUUCUUGUAUUAUUCCCUAUUCUUUCUCGAUAUCAUAUUAAUCUUU
B28: Ie_S2_P5E.1_K5.1_C5.1_H5.1_A5.1_F5.1_[+10TTCC]_T5.1 (ssRNA)
RNA: UUUGAUUAAUAUGAUAUCGUUCUUUCUUGUAUUAUUAUUCCUUCUUUCUCGAUAUCAUAUUAAUCUUU
B29: Ie_S2_P5E.1_K5.1_C5.1_H5.1_A5.1_F5.1_[+10TTC]_T5.1 (ssRNA)
RNA: UUUGAUUAAUAUGAUAUCGUUCUUUCUUGUAUUAUUAUUCUUCUUUCUCGAUAUCAUAUUAAUCUUU
B30: Ie_S2_P5E.1_K5.1_C5.1_H5.1_A5.1_F5.1_[+10TCT]_T5.1 (ssRNA)
RNA: UUUGAUUAAUAUGAUAUCGUUCUUUCUUGUAUUAUUAUCUUUCUUUCUCGAUAUCAUAUUAAUCUUU
B31: Ie_S2_P5E.1_K5.1_C5.1_H5.1_A5.1_F5.1_[+10TTT]_T5.1 (ssRNA)
RNA: UUUGAUUAAUAUGAUAUCGUUCUUUCUUGUAUUAUUAUUUUUCUUUCUCGAUAUCAUAUUAAUCUUU
B32: Ie_S3_P5E.1_K5.1_C5.1_H5.1_A5.1_[+5CCC]_F5.1_T5.1 (ssRNA)
RNA: ACAAACUGUAUCCCUAUUAACAAAC
B33: Ie_S3_P4E.1_K4.1_C4.1_H4.1_A4.1_[+7TCTC]_F4.1_T4.1 (ssRNA)
RNA: ACAAACUGUAUAUUCUCUAACAAAC
B34: Ie_S3_P4E.1_K4.1_C4.1_H4.1_[+3CCT]_A4.1_F4.1_T4.1 (ssRNA)
RNA: ACAAACUGUCCUAUAUUAACAAAC
B35: Ie_S3_P4E.1_K4.1_C4.1_H4.1_A4.1_[+7CTCTC]_F4.1_T4.1 (ssRNA)
RNA: ACAAACUGUAUAUCUCUCUAACAAAC
B36: Ie_S3_P4E.1_K4.1_C4.1_H4.1_A4.1_F4.1_[+8CCCT]_T4.1 (ssRNA)
RNA: ACAAACUGUAUAUUCCCUAACAAAC
B37: Ie_S2_P5E.1_K5.1_C5.1_H5.1_A5.1_F5.1_[+10TT]_T5.1 (ssRNA)
RNA: UUUGAUUAAUAUGAUAUCGUUCUUUCUUGUAUUAUUAUUUUCUUUCUCGAUAUCAUAUUAAUCUUU
B38: Ie_S2_P5E.1_K5.1_C5.1_H5.1_A5.1_F5.1_[+10T]_T5.1 (ssRNA)
RNA: UUUGAUUAAUAUGAUAUCGUUCUUUCUUGUAUUAUUAUUUCUUUCUCGAUAUCAUAUUAAUCUUU
B39: Ie_S3_P4E.1_K4.1_C4.1_H4.1_[+2C]_A4.1_F4.1_T4.1 (ssRNA)
RNA: ACAAACUGCUAUAUUAACAAAC
B40: Ie_S3_P3E.2_K3.1_C3.2_H3.1_[+2CCTCT]_A3.1_F3.1_T3.2 (ssRNA)
RNA: ACAAACCUUGCCUCUUAUAUAUAACAAAC
B41: Ie_S3_P4E.1_K4.1_C4.1_H4.1_[+3CCCT]_A4.1_F4.1_T4.1 (ssRNA)
RNA: ACAAACUGUCCCUAUAUUAACAAAC
B42: Ie_S3_P4E.1_K4.1_C4.1_H4.1_A4.1_[+7TCC]_F4.1_T4.1 (ssRNA)
RNA: ACAAACUGUAUAUUCCUAACAAAC
B43: Ie_S3_P5E.1_K5.1_C5.1_H5.1_[+2CCTC]_A5.1_F5.1_T5.1 (ssRNA)
RNA: ACAAACUGCCUCUAUUAUUAACAAAC
B44: Ie_S3_P4E.1_K4.1_C4.1_H4.1_[+4CCTC]_A4.1_F4.1_T4.1 (ssRNA)
RNA: ACAAACUGUACCUCUAUUAACAAAC
B45: Ie_S3_P4E.1_K4.1_C4.1_H4.1_A4.1_F4.1_[+8TCTC]_T4.1 (ssRNA)
RNA: ACAAACUGUAUAUUUCUCAACAAAC
B46: Ie_S3_P5E.1_K5.1_C5.1_H5.1_[+2CT]_A5.1_F5.1_T5.1 (ssRNA)
RNA: ACAAACUGCUUAUUAUUAACAAAC
B47: Ie_S3_P3E.2_K3.1_C3.2_H3.1_[+1CCTC]_A3.1_F3.1_T3.2 (ssRNA)
RNA: ACAAACCUUCCUCGUAUAUAUAACAAAC
B48: Ie_S3_P5E.1_K5.1_C5.1_H5.1_[+2TCC]_A5.1_F5.1_T5.1 (ssRNA)
RNA: ACAAACUGUCCUAUUAUUAACAAAC
B49: Ie_S3_P4E.1_K4.1_C4.1_H4.1_[+1CTCTC]_A4.1_F4.1_T4.1 (ssRNA)
RNA: ACAAACUCUCUCGUAUAUUAACAAAC
B50: Ie_S3_P4E.1_K4.1_C4.1_H4.1_[+2CT]_A4.1_F4.1_T4.1 (ssRNA)
RNA: ACAAACUGCUUAUAUUAACAAAC

Some results are limits rather than exact numbers.

This data set deals with T1, PUF4 RNA-binding domain. The experiment in a line: Mg; RNA-MaP; 20 mM Na-HEPES pH 7.4, 30 mM KOAc, 0.75 mM MgCl2, 0.1% Tween-20, 5% glycerol, 0.1 mg/mL BSA, 2 mM DTT; 25 C; 0.0125-409.6 nM protein. The settings on record: tags: N-His6-TEV cleaved; C-SNAP kept, Cy3B-labelled; label: tethered on chip by stalled RNA polymerase.
On to B1, for which the dissociation constant Kd (usually the constant that tells how readily two partners part at equilibrium) is 896 nM.
The value for B2 was over 2300 nM; that for B3 was over 2300 nM; that for B4 was over 2300 nM.
The value for B5 was 1100 nM; that for B6 was 1830 nM; that for B7 was 1170 nM.
The value for B8 was 650 nM; that for B9 was over 2300 nM; that for B10 was over 2300 nM.
Turning to B11, the Kd was 13.7 nM.
Molecule B12 had a Kd of 1.84 nM.
In turn, B13 returned a Kd of 6.98 nM.
The same measure for B14: 12.8 nM.
The value for B15 was 7.72 nM; that for B16 was 7.79 nM.
The value for B17 was 2.21 nM; that for B18 was 1270 nM; that for B19 was 0.554 nM.
The molecule B20 registered an equilibrium dissociation constant (Kd) of 1200 nM.
The same measure for B21: 927 nM; for B22: 1020 nM; for B23: 1560 nM.
The value for B24 was 28.6 nM; that for B25 was 9.85 nM; that for B26 was 13.2 nM.
The same measure for B27: 8.29 nM.
B28 returned a dissociation constant (Kd) of 2.02 nM.
The value for B29 was 2.01 nM.
B30: the Kd amounted to 3.7 nM.
The value for B31 was 1.17 nM; that for B32 was 24.3 nM; that for B33 was 6.81 nM.
The value for B34 was 59.9 nM.
The same measure for B35: 14.6 nM; for B36: 6.57 nM; for B37: 2.29 nM.
Molecule B38 showed a Kd of 1.76 nM.
The value for B39 was 672 nM.
In turn, B40 registered a Kd of 1010 nM.
The value for B41 was 602 nM; that for B42 was 7.23 nM.
The value for B43 was over 2300 nM.
Take B44: the Kd amounted to 14.7 nM.
The same measure for B45: 8.77 nM.
The value for B46 was over 2300 nM; that for B47 was 565 nM; that for B48 was 101 nM.
The same measure for B49: 69.5 nM.
As to B50, the affinity, expressed as Kd, was 1800 nM.
